This note sets out measurements from IntAct's records for PubMed 24525234.

The labels stand for the following.
B1: Rho guanine nucleotide exchange factor 2 (Mus musculus), Q60875 (parent)
chain: MSRIESLTRARIDRSKEQATKTREKEKMKEAKDARYTNGHLFTTISVSGMTMCYACNKSITAKEALICPTCNVTIHNRCKDTLANCTKVKQKQQKAALLRNNTALQSVSLRSKTTTRERPTSAIYPSDSFRQSLLGSRRGLSSLSLAKSVSTTNIAGHFNDESPLGLRQILSQSTDSLNMRNRTLSVESLIDEGVEVFYNELMSDFEMDEKDFEADSWSLAVDSSFLQQHKKEVMKKQDVIYELIQTELHHVRTLKIMTRLFRTGMLEELQMEPEVVQGLFPCVDELSDIHTRFLNQLLERRRQALCPGSTRNFVIHRLGDLLISQFSGSNAEQMRKTYSEFCSRHTKALKLYKELYARDKRFQQFIRKMTRSAVLKRHGVQECILLVTQRITKYPVLINRILQNSHGVEEEYQDLASALGLVKELLSNVDQDVHELEKEARLQEIYNRMDPRAQTPVPGKGPFGRDELLRRKLIHEGCLLWKTATGRFKDVLLLLMTDVLVFLQEKDQKYIFTSLDKPSVVSLQNLIVRDIANQAKGMFLISSGPPEMYEVHAASRDDRTTWIRVIQQSVRLCPSREDFPLIETEDKAYLRRIKTKLQQKNQALVELLQKNVELFAEMVHFQALKAGFVGMPPPALPRGLFRLESFESLRGERLLKDALREVEGLKDLLLGPCVDLPMTSREPALPLDSDSGSCPGVTANGEARTFNGSIELCRADSDSSQKDRNGNQLRSPQEEVLQPLINLYGLLHGLQAVVVQQERLMEALFPEGPERWEKLSRANSRDGEAGRAAVASVTPEKQATELALLQRQHTLLQEELRRCQRLGEERATEAGSLEARLRESEQARALLEREAEEIRRQLAALGQNEPLPAEAPWARRPLDPRRRSLPAGDALYLSFNPPQPSRGHDRLDLPVTVRSLHRPFDDREAQELGSPEDRLQDSSDPDTGSEEEVSSRLSPPHSPRDFTRMQDIPEETESRDGEPTASES

The variants in the test derive from B1. Conditions: with rhoa_human RHOA.
For the variant E243K, the “effect of a mutation on the interaction” value is given as “disrupting interaction”.
